This is an account of results in patent publication US7449443B2, “Method for stabilization of proteins using non-natural amino acids” (California Institute of Technology, priority 2000, dated 2008).

The nature of series [1]: CD thermal unfolding of GCN4-p1 coiled-coil peptides. Format: physicochemical. As to the method:
(§1) Circular Dichroism (CD) Analysis. CD spectra were recorded on an Aviv 62DS spectropolarimeter (Lakewood, N.J.) in PBS buffer, pH 7.4. All peptide concentrations were determined by amino acid analysis of a stock solution (5 mg/ml). Experiments were performed in a rectangular cell with pathlength of 1 cm for low concentration samples and pathlength of 1 mm for high concentration samples. Spectra were scanned from 250 nm to 200 nm with data taken every 1 nm. The temperature of the solution was maintained by a thermostatically controlled cuvette holder (HP model 89101A). Temperature scans were performed from 0° C. to 100° C. in 1° C. steps. Three scans were performed on a single sample and averaged. Each data point was collected after 30 seconds of thermal equilibration at the desired temperature. Urea titration scans were performed manually starting with the 8 M concentrated sample followed by serial dilution to the desired urea concentration. At each concentration, the sample was allowed to equilibrate for 5 min before recording the CD signal.
(§2) The analysis of CD thermal melting data was performed according to a previously described procedure using a two-state model (Schneider, J. P.; Lear, J. D.; DeGrado, W. F. J. Am. Chem. Soc. 1997, 119, 5742-5743). Temperature-dependent ellipticity data for each protein at different concentrations were fitted globally using a non-linear least-squares fitting procedure supplied with the Origin 6.0 software. For wild-type A1, the concentrations used for curve fitting were 10 and 100 μM, while 2 and 100 μm were used to fit data for the 92% fluorinated A1. The thermodynamic quantities Tm, ΔHm, ΔCp and Kd were parameters of the fitting procedure and are reported in the 1 M standard state. The free energy of folding at any temperature is given by equation 1. ΔG°=ΔHm(1−T/Tm)−ΔCp((Tm−T)+T1n(T/Tm) (1)
The thermal stabilities of the coiled-coil dimers of Leu-GCN4-p1 and Tfl-GCN4-p1 were examined by CD spectroscopy (FIG. 2B). A significant increase in the thermal stability of Tfl-GCN4-p1 as compared to Leu-GCN4-p1 is reflected in an elevation of the thermal denaturation temperature from 48° C. to 61° C. The 13° C. increase in Tm is remarkable in view of the fact that no increase in the thermal stability of GCN4-p1 has been reported based solely on substitution of the leucine residues at the d-positions. […] As expected for a monomer-dimer equilibrium, the denaturation curves depend on the peptide concentrations, and their midpoints shift to higher temperature as the concentrations of peptides are increased (FIG. 2C). The thermodynamic changes associated with the transition (folded dimer to unfolded monomers) is calculated from the melting curves by fitting the data to a monomer-dimer equilibrium (J. P. Schneider, J. D. Lear and W. F. DeGrado, J. Am. Chem. Soc. 119, 5742, 1997). Global analysis of the thermal unfolding curves at two different concentrations, approximately 85 μM and 3 μM, gave a calculated ΔH° of 60.2 kcal mol^−1, Tm of 385.4 K and ΔCp of 530 cal mol^−1 K^−1 for Tfl-GCN4-p1 (1 M standard state); the corresponding values for Leu-GCN4-p1 are 70.3 kcal mol^−1, 365.6 K and 740 cal mol^−1 K^−1 respectively.

For series [2], the system named is E. coli leucine auxotroph SG13009. Kind of series: Analog incorporation assay: A1 expression in leucine auxotroph. Format: cell-based. The following applies: leucine-free medium supplemented with analog, western blot. As to the method:
Analog Incorporation Assay. The expression vector pQE-A1, which contains the coding sequences for the protein A1 (FIG. 4A) was obtained from US Army Natick RD&E Center (Natick, Mass.). The E. coli leucine auxotroph SG13009 was obtained from Qiagen (Chatsworth, Calif.) and transformed with plasmids pREP4 and pQE-A1, to yield the expression host […] medium (30 ml) supplemented with 1 mM MgSO4, 1 mM CaCl2, […], 1 mg/L thiamin and the antibiotics ampicillin (200 mg/L) and kanamycin (25 mg/L) were inoculated with 1 ml of an overnight 2×YT culture of the expression strain. […] The supernatant was removed and the cell pellets were washed with 0.9% NaCl and sedimented (5000 g, 10 min, 4° C.). The washing and sedimentation steps were repeated three times to remove residual leucine. The washed cells were then resuspended in 31 ml of supplemented […] medium, without leucine. Aliquots (5 ml) were added to test tubes containing no leucine (negative control), L-leucine (20 mg/L, positive control), DL-trifluoroleucine (40 mg/L) or DL-hexafluoroleucine (40 mg/L). The cultures were grown for 10 min at 37° C., and isopropyl-β-D-thiogalactopyranoside (IPTG) was added to a final concentration of 1 mM. […] The whole cell lysate was analyzed by 15% SDS-PAGE. The proteins were detected by western blotting with an antibody specific for the N-terminal His-Tag of A1 (FIG. 4B).

Series [3] deals with oligonucleotides containing the CREB binding site. Kind of series: Mobility shift (gel-retardation) assay, CREB. The following applies: densitometry analysis of mobility shift assay. From the text: (§3) (FIG. 3B) Leu-bZip binds to both the AP-1 and CREB binding sites with equal affinities even though the spacing between the half-sites of DNA is different.
Series [4] has as its target oligonucleotides containing the AP-1 binding site. The series is described as follows: Mobility shift (gel-retardation) assay, AP-1. The following applies: densitometry analysis of mobility shift assay.
From the text: as §3

Series [5] deals with nonspecific sequence (NON) oligonucleotides. The series is described as follows: Mobility shift (gel-retardation) assay, nonspecific sequence. Format: binding.
From the text: as §3

In another series the target is LeuRS (Escherichia coli, UniProt P07813). The series is described as follows: Level of Tfl incorporation versus leucine concentration in expression medium. Format: cell-based, E. coli. As to conditions: estimated from 50% substitution at leucine 8 mg/L (50 μM) and Tfl (DL) 100 mg/L (540 μM). As to the method:
Normal leucine concentration in expression medium is 40 mg/L. The extent of incorporation is determined by amino acid analysis.
Protein Expression and Purification. M9 medium (1 L) supplemented as described above was inoculated with 30 ml of fresh overnight culture of the expression strain. After the culture had grown to OD600 of 1.0, it was subjected to centrifugation and washing procedures as described above. The cell pellet was suspended in 1 L M9 medium supplemented with trifluoroleucine (100 mg/L) and leucine in appropriate concentrations. IPTG was added after 10 min to induce protein expression. The expression of protein was monitored by removing an aliquot (1 ml) of the culture every hour and analyzing by SDS-PAGE. Cells were collected after 3 hr by centrifugation (5000 g, 15 min, 4° C.). The pellets were resuspended in 20 ml of buffer A and stored at −80° C. overnight. […] Extent of trifluoroleucine incorporation was determined by amino acid analysis (DNA/Protein Analysis Facility, Cornell University) and MALDI mass spectrometry (Protein/Peptide Micro Analytical Laboratory, Caltech).
The degree of substitution is determined through the diminution of leucine mole fractions from amino acid analysis (AAA). […]

Series [6] is described as follows: Urea titration of A1 proteins by CD. The following applies: 0° C., 10 μM protein, PBS, pH 7.4. Format: physicochemical. As to the method:
The fraction of unfolded protein is plotted against increasing urea concentration. Insert: The urea concentration at which 50% of protein is denatured is plotted against the extent of fluorination. (10 μM protein concentration, PBS buffer, pH 7.4).
as §1

Series [7] is described as follows: CD thermal denaturation of A1 proteins with two-state global fitting. The following applies: for ΔCp (1M) heat capacity change upon folding: 1M standard state, uncertainty 120; for ΔHm (1M) enthalpy of folding: at midpoint temperature, extrapolated to 1M standard state, uncertainty 4.8; for Tm (1M): extrapolated to 1M standard state by non-linear least square fit, uncertainty ± 1.5° C.; for Tm (10 μM): midpoint of thermal denaturation curve at 10 μM protein. Format: physicochemical. As to the method: Insert: The thermal melting temperature (Tm) plotted as a function of level of incorporation. Tm is defined as the temperature at which 50% of the peptide has unfolded. The stability of the protein increases with increasing level of 2trifluoroleucine substitution. (10 μM protein concentration, PBS buffer, pH 7.4).
as §1, §2
Global thermodynamic fitting was used to obtain the thermodynamic quantities associated with the monomer to dimer transition for A1-WT and FA1-92. The intermediate level fluorinated proteins, FA1-17 and FA1-29 were not fitted using the procedure because the heterogeneity of the samples would not be described accurately by the two-state model. The presence of a heterogeneous population can be seen from the broadening of the thermal melting curves at substitution rates of 17 and 29%. However, even for the nearly completely substituted FA1-92, the protein sample was still a mixed population because Tfl was used as an equal molar mixture of (2S, 4S) and (2S, 4R) diastereomers. The free energy of unfolding for FA1-92 was 2.4 kcal/mol more favorable than A1-WT at 37° C., which corresponded to 0.4 kcal/mol of stabilizing energy per Tfl molecule involved at the helix interface. Considering the large number of leucines packed in the hydrophobic core of proteins, the additive stabilizing effects of Tfl can be quite substantial.

Setting [8] is: global analysis of thermal unfolding curves, 1 M standard state.

Chain of LeuRS (P07813 whole entry): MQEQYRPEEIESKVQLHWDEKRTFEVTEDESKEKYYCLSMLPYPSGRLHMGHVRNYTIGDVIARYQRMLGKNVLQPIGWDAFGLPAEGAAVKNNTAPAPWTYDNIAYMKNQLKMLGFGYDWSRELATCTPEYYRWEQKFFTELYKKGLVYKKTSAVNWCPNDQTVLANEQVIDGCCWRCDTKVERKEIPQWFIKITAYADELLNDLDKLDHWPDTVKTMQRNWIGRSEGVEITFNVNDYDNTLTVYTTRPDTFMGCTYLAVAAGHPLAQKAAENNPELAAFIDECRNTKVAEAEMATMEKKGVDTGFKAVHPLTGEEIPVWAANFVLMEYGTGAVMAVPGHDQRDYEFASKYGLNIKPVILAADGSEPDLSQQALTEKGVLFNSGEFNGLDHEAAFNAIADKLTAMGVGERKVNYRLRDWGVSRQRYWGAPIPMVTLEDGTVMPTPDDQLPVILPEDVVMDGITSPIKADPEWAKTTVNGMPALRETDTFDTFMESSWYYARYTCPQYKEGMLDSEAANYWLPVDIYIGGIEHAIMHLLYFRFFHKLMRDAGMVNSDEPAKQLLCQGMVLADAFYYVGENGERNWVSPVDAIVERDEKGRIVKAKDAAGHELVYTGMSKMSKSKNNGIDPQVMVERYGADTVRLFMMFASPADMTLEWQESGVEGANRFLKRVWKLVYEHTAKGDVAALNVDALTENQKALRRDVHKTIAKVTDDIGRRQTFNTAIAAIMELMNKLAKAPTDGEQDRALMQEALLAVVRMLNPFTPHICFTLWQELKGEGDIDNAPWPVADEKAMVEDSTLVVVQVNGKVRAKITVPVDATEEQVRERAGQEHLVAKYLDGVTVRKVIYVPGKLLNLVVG

“Leu-GCN4-p1: wild type form of the leucine zipper peptide GCN4-p1, not acylated at the N-terminus [reference compound]”: in series [1] (CD spectroscopy, coiled-coil dimers), the “thermal denaturation temperature (Tm)” value amounted to 48 °C. Besides, the “ΔH°” value in series [1] (global analysis of thermal unfolding curves at approximately 85 μM and 3 μM, 1 M standard state) was found to be 70.3 kcal/mol. Further, in series [1] (setting [8]), the Tm was 92.5 °C and the ΔCp worked out at 740 cal mol^−1 K^−1.

Turning to `N[C@@H](CC(C(F)(F)F)C(F)(F)F)C(=O)O` [Hfl, 5,5,5,5′,5′,5′-hexafluoroleucine], in series [2], the “ability to support protein synthesis (A1 expression)” value is reported as “does not support measurable protein synthesis”.

As to “Leu-bZip: wild-type 56 amino acid segment (residues 226-281) of the eukaryotic transcription factor GCN4”, the Kd in series [3] stood at 4.8 ± 0.5 nM; in series [4], 12.8 ± 1 nM. Besides, the “recognition of nonspecific (NON) sequences” value in series [5] is given as “lack of protein-bound DNA”.

For the molecule `CC(C[C@H](N)C(=O)O)C(F)(F)F` (stereo partly shown) [Tfl, 5,5,5-trifluoroleucine], the “ability to support protein synthesis (A1 expression)” value in series [2] is “support protein synthesis”. Besides, the “specificity for LeuRS compared to leucine” value on LeuRS is given as “reduced five times”.

B1: FA1-92: trifluoroleucine-substituted A1 protein, 92% replacement of leucine by amino acid analysis (protein)
chain: MRGSHHHHHHGSMASGDLENEYAQLEREVRSLEDEAAELEQKVSRLKNEIEDLAEIGDLNNTSGIRRPAAKLN
On to B1, for which the “Curea, 50% (Cm), midpoint urea denaturation concentration” value (from here on “Curea, 50% (Cm)”) in series [6] turned out to be 7 M. For the same molecule, the “Tm elevation compared to A1-WT” value in series [7] (10 μM protein, PBS, pH 7.4) was 13 °C. In series [7], the “ΔCp (1M) heat capacity change upon folding” value was −272 cal/mol-K, the “ΔHm (1M) enthalpy of folding” value is -77.0 kcal/mol and the “Tm (1M)” value was 116 °C. Further, in series [7] (at 37° C.), the “free energy of unfolding more favorable than A1-WT” value was 2.4 kcal/mol and the “stabilizing energy per Tfl molecule involved at the helix interface” value was 0.4 kcal/mol. Also, the “Tm (10 μM)” value in series [7] (PBS, pH 7.4) was found to be 67 °C. In series [7] (thermal and chemical (urea) unfolding studies), the “resistance to thermal and chemical denaturation” value is listed as “highly resistant”.

B2: A1-WT: wild type leucine-zipper protein A1 with eight leucine residues, expressed in E. coli (protein)
chain: B1 chain
As to B2, in series [6], the “Curea, 50% (Cm)” value stood at 2.7 M. In series [6] (listed as Al-WT), the “Curea, 50% (Cm)” value is listed as 2.8 M. In series [7], the “ΔCp (1M) heat capacity change upon folding” value is recorded as −252 cal/mol-K, the “ΔHm (1M) enthalpy of folding” value is -70.9 kcal/mol and the “Tm (1M)” value was 103 °C. Also, the “Tm (10 μM)” value in series [7] (PBS, pH 7.4) stood at 54 °C.
